Data published in the supplement of paper PMC11908140.

B1: library; numbered along this chain (parent)
chain: MRKPRAAVGSGHRKQAASQEGRQKHAKNNSQAKPSACDGLARQPEEVVLQASVSSYHLFRDVAEVTAFRGSLLSWYDQEKRDLPWRRRAEDEMDLDRRAYAVWVSEVMLQQTQVATVINYYTGWMQKWPTLQDLASASLEEVNQLWAGLGYYSRGRRLQEGARKVVEELGGHMPRTAETLQQLLPGVGRYTAGAIASIAFGQATGVVDGNVARVLCRVRAIGADPSSTLVSQQLWGLAQQLVDPARPGDFNQAAMELGATVCTPQRPLCSQCPVESLCRARQRVEQEQLLASGSLSGSPDVEECAPNTGQCHLCLPPSEPWDQTLGVVNFPRKASRKPPREESSATCVLEQPGALGAQILLVQRPNSGLLAGLWEFPSVTWEPSEQLQRKALLQELQRWAGPLPATHLRHLGEVVHTFSHIKLTYQVYGLALEGQTPVTTVPPGARWLTQEEFHTAAVSTAMKKVFRVYQGQQPGTCMGSKRSQVSSPCSRKKPRMGQQVLDNFFRSHISTDAHSLNSAAQ

Variants of: B1
Assay: 8OG:A repair function score (normalized; synonymous = 0, nonsense = -1) (normalized log-likelihood score); higher = more repair activity (WT-like)
Settings: with 8OG:A DNA repair reporter (GFP) in HEK-293 MUTYH KO cells
Outline: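 With 10 pg/ml doxycycline, MUTYH knockout HEK-293 cells carrying lentiviral MUTYH cDNA NNN codon-scan libraries were co-transfected with mCherry and an 8OG:A GFP repair reporter. Viable mCherry+ cells were sorted into GFP+ (repair) and GFP− bins at 72 h, three replicates per tile, and tile amplicons were sequenced. Per-tile Rosace fitness scores were then normalized into a repair function score anchored on synonymous and nonsense distributions. Medians were fixed at 0 for synonymous and -1 for nonsense, excluding variants under 300 counts per million at the start.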

8OG:A repair function score: each site, then its substitutions
S270: N -0.0408; Y -0.036; I -0.0239
C272: E -1.29; H -1.32; D -1.28; F -1.42; A -1.16; G -1.24
R266: I -0.164; L -0.152; Y -0.102; M -0.0578; S -0.0823; G -0.111; H 0.00581; T -0.142; F -0.104; K 0.00702; W -0.135; N -0.0656; A -0.0544; Q -0.165; E -0.22; C -0.085; P -0.449; D -0.269; V -0.119
L268: I -0.0493; N -0.0234; Q -0.0131; V -0.0404; A -0.000124; Y -0.046; S -0.00947; K 0.0167; E -0.133; T 0.012; F 0.00448; D 0.0003; W -0.0985; R 0.00479; C -0.13; M 0.0171; G -0.0658; P -0.285
P264: L -0.0962; R -0.0983; I -0.1; Y -0.087; E -0.25; W -0.113; K -0.048; T -0.066; Q -0.145; H -0.113; M -0.233; F -0.223; D -0.274; V -0.0712; C -0.102; A -0.0364; N -0.0423; G -0.159; S -0.0872
Q265: T 0.00721; E -0.243; Y -0.00929; I -0.0274; W -0.0937; N -0.0302; M -0.0825; R 0.00654; D -0.156; K -0.0319; F -0.022; G -0.0557; A -0.0137; L -0.0663; V -0.0775; P -0.252; C -0.0499; S -0.0301; H 0.0203
